In US12144869B2, “Anti-ROR1 antibody conjugates, compositions comprising anti ROR1 antibody conjugates, and methods of making and using anti-ROR1 antibody conjugates” (Sutro Biopharma, Inc., priority 2022, dated 2024):
Blank lines part the entries; values can stand above or below the molecule they belong to.

Key:
TNBC PDX tumors = experiment: TNBC PDX models, single agent or combination with olaparib; type: in vivo, athymic nude mice; details: CTG-0437, CTG-1017, and CTG-2055; single agent olaparib 50 mg/kg p.o. qd×28
From the text: The activity of Conjugate 46 as a single agent or in combination with the PARP inhibitor olaparib was additionally assessed in TNBC PDX models. Briefly, PDX tumors, spanning varying levels of ROR1 expression and sensitivity to olaparib, were passaged in athymic nude Fox1^nu mice before being processed into tumor fragments for subcutaneous implantation into the hind flank of mice for study initiation. When tumors reached a volume of around 150-300 mm^3, the mice were randomized and enrolled into the study. Tumor-bearing mice were administered up to three weekly doses (qw×3) of Conjugate 46 i.v. at 5 mg/kg and up to twenty-eight daily doses (qd×28) of olaparib p.o. at 50 mg/kg.
Combination treatment with Conjugate 46 and olaparib (50 mg/kg, qd×28) is conducted using a 2 mg/kg, qw×3 dosing regimen for Conjugate 46. The combination therapy is assessed in six TNBC PDX models as described in Example 26.

[1] = test system: Immunoglobulin (Ig), Frizzled (Fz), and Kringle (Kr) domains of ROR1; experiment: Epitope binning ELISA on ROR1 domains; type: binding; details: Table 6
From the text: Antibody binding was detected via HRP-conjugated anti-human Fc antibodies (Jackson Immunoresearch) and detection with SuperSignal ELISA Pico Chemiluminescent Substrate (Pierce).

[2] = Differential scanning fluorimetry (protein thermal shift; TM1/TM2); type: physicochemical; details: Table 11; melting temperature of the Fab domain
Procedure, shortened: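 Protein at 0.2-2 mg/mL was mixed 1:1 with SYPRO Orange in PBS and heated to 95° C. at ~1.5° C. per minute while fluorescence was monitored, in quadruplicate. TM1 is Fc (CH2) unfolding and TM2 is Fab unfolding.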

[3] = biological target: T1, HCT116 cells overexpressing human ROR1 (HCT116-hRor1) (Homo sapiens, UniProt Q01973); experiment: FACS cell binding on HCT116-hROR1; details: Table 11, SP34 light chain
T1 construct: expressed in transfected cells; host or cells: HCT116 (clone HCT116-hRor1-D02)
From the text: Ntera-2, MDA-MB-231, MCF7, HCT116 and Mino cells were obtained from ATCC. HCT116-hRor1-D02 clone was generated by transfecting HCT116 cells with a plasmid containing human Ror1 cDNA sequence and selected for highest stable expression of hRor1 on the cell surface. MDA-MB-231, MCF7, HCT116 and HCT116-Ror1 cell were maintained in Ham's F-12 high glucose DMEM (50-50) (Cellgro-Mediatech; Manassas, VA) supplemented with 10% heat-inactivated fetal bovine serum (Hyclone; Thermo Scientific; Waltham, MA), 1% Penicillin/Streptomycin (Cellgro-Mediatech; Manassas, VA) and 2 mmol/L-glutamax (Life Technology; Carlsbad, CA). Mino cells were maintained in RPMI-1640 medium (Cellgro-Mediatech; Manassas, VA) supplemented with 20% heat-inactivated fetal bovine serum (Hyclone; Thermo Scientific; Waltham, MA), 1% Penicillin/Streptomycin (Cellgro-Mediatech; Manassas, VA) and 2 mmol/L-glutamax (Life Technology; Carlsbad, CA).
Variants with expression levels>250 nM were tested in a fluorescence-activated cell sorting (FACS) cell-binding assay. […]
A mix of ROR1 positive and negative cells was prepared as follows. […] Cells were then washed 2× with FACS buffer and fixed for 10 minutes in 200 μl PBS with 2% PFA prior to fluorescence detection. […] Mean Fluorescence Intensity of ROR1 antibody binding was analyzed using FlowJo® software (Tree Star, Inc.).

human ROR1-Fz = biological target: T2, human ROR1-Fz (Homo sapiens, UniProt Q01973); experiment: Biacore off-rate and kinetic analysis, ROR1-Fz; type: binding; details: Table 11; SP34 light chain
T2 construct: Frizzled (Fz, residues 165-305); His6 (C); purchased Acro Biosystems; host or cells: HEK293
Procedure, shortened: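 Anti-ROR1 antibodies captured on anti-human Fc surface; recombinant hROR1 ECD or ROR1-Fz analyte flowed at 100, 50, 25, 6.25, 1.5625 nM plus 0 nM, 180 s association, 600 s dissociation, 25° C., HBS-EP+ buffer. KD from ratio of rate constants, 1:1 Langmuir fit.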

Molecule: O=C(c1cc(Cc2n[nH]c(=O)c3ccccc23)ccc1F)N1CCN(C(=O)C2CC2)CC1 [olaparib]
tumor growth suppression (TNBC PDX tumors): moderate tumor growth suppression

Domain binding by ELISA [1]: Fz
B1: SRP2196 (antibody, V domains shown)
VH: EVQLVESGGGLVQPGGSLRLSCAASGFNITGYYIHWVRQAPGKGLEWVGYISPNSGSTYYADSVKGRFTISADTSKNTAYLQMNSLRAEDTAVYYCARDSRRYVRPFDYWGQGTLVTVSS
VL: QAVVTQESALTTSPGETVTLTCRSSTGAVTTSNYANWVQEKPDHLFTGLIGGTNKRAPGVPARFSGSLIGDKAALTITGAQTEDEAIYFCALWYSNLWVFGGGTKLTVL
modifications: Synthetic: 1944-A07; VH; Synthetic: SP34 ; VL

HCT 116-hROR1 Binding Bmax (MFI) [3]: 15139 MFI
Kd ([3]; read-out: HCT 116-hROR1 Binding Kd): 0.3 nM
Biacore human ROR1-Fz ka (human ROR1-Fz): 185000 M⁻¹ s⁻¹
Biacore human ROR1-Fz kd (human ROR1-Fz): 0.000269 s⁻¹
Kd (human ROR1-Fz): 1.45 nM
B2: SRP2196-B07 (antibody, V domains shown)
VH: EVQLVESGGGLVQPGGSLRLSCAASGFNITGYHIHWVRQAPGEGLEWVGYISPNSGATYYADSVEGRFTISADTSKNTAYLQMHSLRAEDTAVYYCTRDSRRYVRGWDYWGQGTLVTVSS
VL: QAVVTQESALTTSPGETVTLTCRSSTGAVTTSNYANWVQEKPDHLFTGLIGGTNKRAPGVPARFSGSLIGDKAALTITGAQTEDEAIYFCALWYSNLWVFGGGTKLTVL
TM2 (° C.) [2]: 69 °C
